These are literature values, as cited in US7419780B2, “Methods and assays for screening protein targets” (The Trustees of Columbia University in the City of New York, priority 2000, dated 2008).

The conditions of the data set: substrate nitrocefin.

B1: E. cloacae P99 wt: wild-type E. cloacae P99 cephase (protein, UniProt P05364 21-381, looked up)
Beta-lactamase: TPVSEKQLAEVVANTITPLMKAQSVPGMAVAVIYQGKPHYYTFGKADIAANKPVTPQTLFELGSISKTFTGVLGGDAIARGEISLDDAVTRYWPQLTGKQWQGIRMLDLATYTAGGLPLQVPDEVTDNASLLRFYQNWQPQWKPGTTRLYANASIGLFGALAVKPSGMPYEQAMTTRVLKPLKLDHTWINVPKAEEAHYAWGYRDGKAVRVSPGMLDAQAYGVKTNVQDMANWVMANMAPENVADASLKQGIALAQSRYWRIGSMYQGLGWEMLNWPVEANTVVEGSDSKVALAPLPVAEVNPPAPPVKASWVHKTGSTGGFGSYVAFIPEKQIGIVMLANTSYPNPARVEAAYHILEALQ
The term Km denotes the concentration of substrate that gives half-maximal velocity. Broadly, the kcat is the maximal rate divided by the concentration of active sites. Turning to B1, the “% WT (percentage of wild-type kcat/Km as calculated in that experiment)” value is 100%, the Km is 25 ± 1 µM and the kcat is 780 ± 30 s⁻¹.
